# Measurements reported in paper PMC10536585, “Negr1-Derived Peptides Trigger ALK Degradation and Halt Neuroblastoma Progression In Vitro and In Vivo” (Pharmaceutics, 2023).
# Entries after “also recorded” stand apart in the source; their conditions may differ.
# How the values were obtained:
# N2a cells [1] = assay: MTT assay of N2a cell growth / vitality; assay type: cell-based, murine; conditions: 5 days; for N2a cellular vitality by MTT assay at DIV5: N2a cells 2 × 10^3 cells/cm^2, 3 μM daily, normalized to vehicle (Lorlatinib) or GFP (rNegr1, PepA-1), n = 10; for N2a cellular growth by MTT assay at DIV5: naive N2a cells seeded at 2 × 10^3 cells/cm^2, 100 ng/mL daily, vs. GFP control, n = 10-12
# Description: N2a (Neuro2a, ATCC CCL-131), HEK293 (ATCC CRL-1573), U87 MG (ATCC® HTB14), SKMEL5 (ATCC® HTB70), MCF7 ATCC® HTB-22, A549 ATCC® CCL-185, and SHSY5Y (ATCC® CRL 2266™) cells were grown in DMEM high glucose (Gibco, Thermo Fisher Scientific, Waltham, MA, USA) with 10% FBS, 1% penicillin/streptomycin, and 1% glutamine in a humidified atmosphere of 5% CO2 at 37 °C. In the soft-agar assays, we added 0.6% soft agar (Gibco, Thermo Fisher Scientific, Waltham, MA, USA) in media to 2 × 10^3 cell/cm^2 N2a cells to obtain a final concentration of 0.4% agar. We cultured the cells onto a 0.6% soft agar layer. N2a and HEK293 cells were transfected with the different constructs for 48 h using Lipofectamine 2000 (Invitrogen, Thermo Fisher Scientific Waltham, MA, USA). Stable N2a clones expressing murine Negr1 were isolated upon Neomycin selection (1 μg/mL).
# We performed the 3-(4,5-dimethylthiazol-2-yl)-2,5-diphenyltetrazolium bromide (MTT) assay to appreciate culture vitality. We cultured N2a cells in a 96-well plate at a concentration of 2 × 10^3 cells/cm^2. The treatment condition is indicated in the Results Section 3. At the end of the treatment, we added the MTT solution to the cell medium at a final concentration of 0.25 mg/mL. The incubation lasted 30 min at 37 °C. Next, we removed the medium and collected the formazan precipitates in DMSO (200 μL). We measured the absorbance at 570 nm using a spectrophotometer (Varioskan LUX, Thermofisher, Waltham, MA, USA) as a proxy for cell viability. We expressed relative cell viability fold over the control condition.
# N-MYC = assay: Western blotting of N-MYC protein level in treated N2a cells; assay type: cell-based, murine; conditions: n = 6; for N-MYC protein level (Western blotting), chronic treatment: 100 ng/mL daily for five days
# Description: (§1) We assessed protein level and relative phosphorylation by Western blotting as in [31]. Briefly, upon a wash in PBS, we solubilized cells and tumor specimens in lysis buffer (150 mM NaCl, 50 mM HEPES, 0.5% NP40, 1% sodium-deoxycholate). After 1 h under mild agitation, we clarified the lysate by centrifugation for 20 min at 16,000× g. We performed all experimental procedures at 4 °C. We evaluated protein concentrations via Bradford assay (Bio-Rad, Hercules, CA, USA). For Western blotting experiments, we diluted an equal amount of proteins with 0.25% 5× Laemmli buffer. We separated the samples on 10% SDS-PAGE gels and transferred them onto a nitrocellulose membrane (Sigma-Aldrich) at 80 V for 120 min at 4 °C. Primary antibodies were:
# Beta-actin (Santa Cruz Biotechnology, Dallas, TX, USA, sc-47778), ALK (Santa Cruz Biotechnology, Dallas, TX, USA, sc-398791), N-myc (Santa Cruz Biotechnology, Dallas, TX, USA, sc-56729), p44/42 MAPK (Erk1/2) (137F5) Rabbit mAb (Cell Signaling Technology, Danvers, MA, USA), Akt (pan) (11E7) Rabbit mAb (Cell Signaling Technology, Danvers, MA, USA), Phospho-Akt (Ser473) (D9E) XP® Rabbit mAb (Cell Signaling Technology, Danvers, MA, USA), S6 Ribosomal Protein (5G10) Rabbit mAb (Cell Signaling Technology, Danvers, MA, USA), and Negr1 (AF5394) Goat polyclonal (R&D system, Minneapolis, MN, USA). Antibodies were applied overnight in blocking buffer (20 mM Tris, pH 7.4, 150 mM NaCl, 0.1% Tween 20, and 5% nonfat dry milk). We detected proteins using the ECL prime detection system (GE Healthcare, Chicago, IL, USA) with the imaging ChemiDoc Touch system (Bio Rad, Hercules, CA, USA). We quantified the optical density of the specific bands with ImageLab 3.0 software (Bio Rad, Hercules, CA, USA).
# ALK = molecular target: T1, ALK (Mus musculus, UniProt P97793); assay: Western blotting of ALK protein level in treated N2a cells; assay type: cell-based, murine; conditions: n = 6; for ALK protein level (Western blotting), chronic treatment: 2 × 10^3 cells/cm^2 N2a cells, 100 ng/mL daily for five days, fold over GFP
# T1 construct: we evaluated ALK and N-MYC protein expression by Western blotting; endogenous in cells; host or cells: N2a (Neuro2a, ATCC CCL-131)
# Description: as §1
# Antibodies were applied overnight in blocking buffer (20 mM Tris, pH 7.4, 150 mM NaCl, 0.1% Tween 20, and 5% nonfat dry milk). We detected proteins using the ECL prime detection system (GE Healthcare, Chicago, IL, USA) with the imaging ChemiDoc Touch system (Bio Rad, Hercules, CA, USA). We quantified the optical density of the specific bands with ImageLab 3.0 software (Bio Rad, Hercules, CA, USA).
# N2a cells [2] = assay: Growth of subcutaneous N2a tumors in nude mice; assay type: in vivo; conditions: 1 million N2a cells s.c. in CD1 nude mice; 2 ug in situ every second day from 100 mm^3 tumor volume; vs. GFP; n = 9 (PepA), n = 5 (PepA-1)
# Description: All procedures involving animals were approved by Institutional and National Agencies (authorization 559/2016-PR).
# ALK mRNA = assay: RT-qPCR of ALK mRNA level in treated N2a cells; assay type: cell-based, murine; conditions: 5 × 10^3 cells/cm^2 N2a cells, 100 ng/mL, 10 min to 6 h; normalized over housekeeping genes; n = 6
# Description: (§2) Total RNA was isolated from cell cultures using a Single Cell RNA Purification Kit (Norgen Thorold, ON, Canada) according to manufacturer’s instruction. After extraction, the RNA concentration was quantified with a NanoDrop 2000C spectrophotometer (Thermo Fisher Scientific, Waltham, MA, USA). After DNAse treatment (Thermo Fisher Scientific, Waltham, MA, USA, according to manufacturer’s protocol), complementary DNA (cDNA) was generated using qRT SuperMix (Bimake). The cDNAs were used for quantitative PCR (qPCR) using iTaq Universal SYBR® Green Supermix and CFX96 RealTime System (BioRad, Hercules, CA, USA) for 40 cycles. We used two independent couples of primers to assess mRNA expression levels (Table 3). All samples were measured as technical duplicates. We calculated mRNA expression levels as the average between the two couple of primers, normalized for the mathematical mean of the relative abundance of actinB and GAPDH (housekeeping genes). Data shown were produced using Bio-Rad CFX Manager 3.1 software and analyzed according to the ddCt method.
# N-MYC mRNA = assay: RT-qPCR of N-MYC mRNA level in treated N2a cells; assay type: cell-based, murine; conditions: 5 × 10^3 cells/cm^2 N2a cells, 100 ng/mL, 10 min to 6 h; normalized over housekeeping genes; n = 6
# Description: as §2
# [3] = 2 × 10^3 cells/cm^2 N2a cells, fold over GFP
# [4] = 5 × 10^3 cells/cm^2 N2a cells, 100 ng/mL, 10 min to 6 h, normalized over actin, vs. GFP
# T1 sequence (P97793 19-1621): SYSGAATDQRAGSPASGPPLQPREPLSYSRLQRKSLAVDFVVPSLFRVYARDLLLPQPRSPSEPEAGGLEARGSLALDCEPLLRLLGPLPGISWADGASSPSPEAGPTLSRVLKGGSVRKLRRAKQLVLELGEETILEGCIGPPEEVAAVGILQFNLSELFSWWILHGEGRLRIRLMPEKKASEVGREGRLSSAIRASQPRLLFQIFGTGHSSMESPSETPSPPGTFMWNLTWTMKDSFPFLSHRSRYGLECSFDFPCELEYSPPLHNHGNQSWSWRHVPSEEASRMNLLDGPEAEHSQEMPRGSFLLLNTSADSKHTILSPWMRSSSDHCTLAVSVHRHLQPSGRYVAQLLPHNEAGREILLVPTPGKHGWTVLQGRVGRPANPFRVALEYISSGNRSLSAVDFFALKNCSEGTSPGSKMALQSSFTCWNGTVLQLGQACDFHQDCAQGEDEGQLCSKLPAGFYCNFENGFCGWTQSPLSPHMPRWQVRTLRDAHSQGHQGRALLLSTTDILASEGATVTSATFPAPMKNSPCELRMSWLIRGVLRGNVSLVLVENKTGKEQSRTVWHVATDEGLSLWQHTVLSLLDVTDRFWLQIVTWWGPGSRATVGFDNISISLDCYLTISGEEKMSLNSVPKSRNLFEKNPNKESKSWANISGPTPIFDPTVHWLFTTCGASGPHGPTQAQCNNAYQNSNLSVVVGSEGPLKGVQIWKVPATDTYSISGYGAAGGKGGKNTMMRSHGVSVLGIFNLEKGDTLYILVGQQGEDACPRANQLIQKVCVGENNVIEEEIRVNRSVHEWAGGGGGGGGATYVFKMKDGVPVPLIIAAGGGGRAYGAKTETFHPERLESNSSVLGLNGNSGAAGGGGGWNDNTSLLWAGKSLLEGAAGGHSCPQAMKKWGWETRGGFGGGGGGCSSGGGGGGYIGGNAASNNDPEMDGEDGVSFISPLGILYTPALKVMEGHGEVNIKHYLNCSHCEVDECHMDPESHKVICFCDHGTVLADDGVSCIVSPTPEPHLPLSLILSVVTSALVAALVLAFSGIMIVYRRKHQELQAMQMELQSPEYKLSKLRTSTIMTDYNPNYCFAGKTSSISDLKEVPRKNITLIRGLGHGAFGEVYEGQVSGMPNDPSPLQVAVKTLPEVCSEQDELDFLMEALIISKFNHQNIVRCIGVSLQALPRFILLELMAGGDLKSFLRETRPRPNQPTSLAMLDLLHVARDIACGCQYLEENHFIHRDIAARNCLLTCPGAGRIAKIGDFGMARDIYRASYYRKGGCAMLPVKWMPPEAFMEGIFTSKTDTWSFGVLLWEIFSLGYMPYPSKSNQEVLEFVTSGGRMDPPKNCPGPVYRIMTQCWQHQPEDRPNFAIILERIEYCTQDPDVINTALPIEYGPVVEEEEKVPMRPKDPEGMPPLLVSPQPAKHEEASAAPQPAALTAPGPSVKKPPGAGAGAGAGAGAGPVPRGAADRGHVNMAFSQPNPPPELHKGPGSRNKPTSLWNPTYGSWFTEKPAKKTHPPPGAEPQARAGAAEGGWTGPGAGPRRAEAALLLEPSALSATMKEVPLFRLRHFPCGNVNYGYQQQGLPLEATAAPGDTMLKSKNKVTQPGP
Molecule,N2a cellular vitality by MTT assay at DIV5 (N2a cells [1]),"N-MYC protein level (Western blotting), chronic treatment at 3 μM (N-MYC; 2 × 10^3 cells/cm^2 N2a cells, 3 μM daily for five days, fold over GFP)",N2a cellular growth by MTT assay at DIV5 (N2a cells [1]),"ALK protein level (Western blotting), chronic treatment (ALK)","N-MYC protein level (Western blotting), chronic treatment (N-MYC; [3])","Tumor growth (tumor volume, fold over day 1) (N2a cells [2])","ALK protein level (Western blotting), acute treatment (ALK; [4])","N-MYC protein level (Western blotting), acute treatment (N-MYC; [4])",ALK mRNA level (RT-qPCR) (ALK mRNA),N-MYC mRNA level (RT-qPCR) (N-MYC mRNA)
"C[C@H]1Oc2cc(cnc2N)-c2c(nn(C)c2C#N)CN(C)C(=O)c2ccc(F)cc21 [Lorlatinib, reference compound]",impaired N2A growth to a similar extent,strongly reduced,–,–,–,–,–,–,–,–
"VDFPWAAVDNMLVRKGDTAVLRCYLEDGASKGAWLNRSSIIFAGGDKWSVDPRVSISTLNKRDYSLQIQNVDVTDDGPYTCSVQTQHTPRTMQVHL [PepA, Negr1 first Ig domain, strep-FLAG tagged recombinant protein purified from HEK293 cells]",–,–,significantly reduced N2a proliferation,robust reduction,robust reduction,robust growth reduction,–,–,–,–
"rNegr1: Recombinant Strep-FLAG Negr1 (murine) expressed in and purified from HEK293 cells (protein, UniProt Q80Z24 32-318, looked up, Strep-FLAG tag, Recombinant Strep-FLAG Negr1 (murine) expressed in and purified from HEK293 cells) Neuronal growth regulator 1: VDFPWAAVDNMLVRKGDTAVLRCYLEDGASKGAWLNRSSIIFAGGDKWSVDPRVSISTLNKRDYSLQIQNVDVTDDGPYTCSVQTQHTPRTMQVHLTVQVPPKIYDISNDMTINEGTNVTLTCLATGKPEPVISWRHISPSAKPFENGQYLDIYGITRDQAGEYECSAENDVSFPDVKKVRVIVNFAPTIQEIKSGTVTPGRSGLIRCEGAGVPPPAFEWYKGEKRLFNGQQGIIIQNFSTRSILTVTNVTQEHFGNYTCVAANKLGTTNASLPLNPPSTAQYGITG",impaired N2A growth to a similar extent,–,significantly reduced N2a growth; also recorded: significantly reduced N2a proliferation,did not overtly affect,did not overtly affect,–,reduction,reduction,did not notice an overt impact,light but significant effect
